T1: Ebi3 subunit of mouse recombinant IL-35 (rIL-35) (mouse), O35228
T1 chain: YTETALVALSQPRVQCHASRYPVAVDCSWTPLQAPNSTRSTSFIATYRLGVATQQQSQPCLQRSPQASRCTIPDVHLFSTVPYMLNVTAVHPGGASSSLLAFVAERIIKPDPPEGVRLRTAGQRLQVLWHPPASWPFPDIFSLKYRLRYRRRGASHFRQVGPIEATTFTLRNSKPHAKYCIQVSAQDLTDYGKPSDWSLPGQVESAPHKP


Columns and labels:
[1] = target: the molecule itself; assay: SEC
[2] = target: T1, Ebi3 subunit of mouse recombinant IL-35 …; assay: SEC; conditions: remark: other sources report otherwise

stoichiometry N [2] | Binder | stoichiometry N [1]
 | IL-12p35 subunit of mouse recombinant IL-35 (rIL-35) (natural protein, UniProt P43431 23-215, looked up) RVIPVSGPARCLSQSRNLLKTTDDMVKTAREKLKHYSCTAEDIDHEDITRDQTSTLKTCLPLELHKNESCLATRETSSTTRGSCLPPQKTSLMMTLCLGSIYEDLKMYQTEFQAINAALQNHNHQQIILDKGMLVAIDELMQSLNHNGETLRQKPPVGEADPYRVKMKLCILLHAFSTRVVTINRVMGYLSSA | 2
2 | Ebi3 subunit of mouse recombinant IL-35 (rIL-35), O35228 19-228 (natural protein) YTETALVALSQPRVQCHASRYPVAVDCSWTPLQAPNSTRSTSFIATYRLGVATQQQSQPCLQRSPQASRCTIPDVHLFSTVPYMLNVTAVHPGGASSSLLAFVAERIIKPDPPEGVRLRTAGQRLQVLWHPPASWPFPDIFSLKYRLRYRRRGASHFRQVGPIEATTFTLRNSKPHAKYCIQVSAQDLTDYGKPSDWSLPGQVESAPHKP | 

Source: article PMC4581966 (Cytokine & growth factor reviews, 2015)
